The target in assay [1] is HCMV gB ectodomain base construct (gB Base) (human cytomegalovirus, Towne strain) (UniProt P13201). The assay can be described thus: SEC; Superose 6 Increase 10/300 GL; 2 mM Tris pH 8.0, 200 mM NaCl, 0.02% sodium azide; LMW peak ~14 mL (trimers), HMW peak ~12 mL (oligomers of trimers). (Size exclusion chromatography separates by hydrodynamic size, large species first.)
The target is the same in assay [2]. The experiment in a line: cryo-EM structure.

What is called stoichiometry N is the number of molecules, sites or subunits per partner or assembly. In the case of “HCMV gB ectodomain base construct (gB Base) (from UniProt P13201 23-704) (domain or fragment)”, the stoichiometry N in assay [1] and in assay [2] was 3 throughout.
